Test results published in article PMC10540216, “Activity Guided Azide-methyllysine Photo-trapping for Substrate Profiling of Lysine Demethylases” (Journal of the American Chemical Society, 2023).

B1: SIN3A_HUMAN (protein, UniProt Q96ST3 1-1273, looked up)
Paired amphipathic helix …: MKRRLDDQESPVYAAQQRRIPGSTEAFPHQHRVLAPAPPVYEAVSETMQSATGIQYSVTPSYQVSAMPQSSGSHGPAIAAVHSSHHHPTAVQPHGGQVVQSHAHPAPPVAPVQGQQQFQRLKVEDALSYLDQVKLQFGSQPQVYNDFLDIMKEFKSQSIDTPGVISRVSQLFKGHPDLIMGFNTFLPPGYKIEVQTNDMVNVTTPGQVHQIPTHGIQPQPQPPPQHPSQPSAQSAPAPAQPAPQPPPAKVSKPSQLQAHTPASQQTPPLPPYASPRSPPVQPHTPVTISLGTAPSLQNNQPVEFNHAINYVNKIKNRFQGQPDIYKAFLEILHTYQKEQRNAKEAGGNYTPALTEQEVYAQVARLFKNQEDLLSEFGQFLPDANSSVLLSKTTAEKVDSVRNDHGGTVKKPQLNNKPQRPSQNGCQIRRHPTGTTPPVKKKPKLLNLKDSSMADASKHGGGTESLFFDKVRKALRSAEAYENFLRCLVIFNQEVISRAELVQLVSPFLGKFPELFNWFKNFLGYKESVHLETYPKERATEGIAMEIDYASCKRLGSSYRALPKSYQQPKCTGRTPLCKEVLNDTWVSFPSWSEDSTFVSSKKTQYEEHIYRCEDERFELDVVLETNLATIRVLEAIQKKLSRLSAEEQAKFRLDNTLGGTSEVIHRKALQRIYADKAADIIDGLRKNPSIAVPIVLKRLKMKEEEWREAQRGFNKVWREQNEKYYLKSLDHQGINFKQNDTKVLRSKSLLNEIESIYDERQEQATEENAGVPVGPHLSLAYEDKQILEDAAALIIHHVKRQTGIQKEDKYKIKQIMHHFIPDLLFAQRGDLSDVEEEEEEEMDVDEATGAVKKHNGVGGSPPKSKLLFSNTAAQKLRGMDEVYNLFYVNNNWYIFMRLHQILCLRLLRICSQAERQIEEENREREWEREVLGIKRDKSDSPAIQLRLKEPMDVDVEDYYPAFLDMVRSLLDGNIDSSQYEDSLREMFTIHAYIAFTMDKLIQSIVRQLQHIVSDEICVQVTDLYLAENNNGATGGQLNTQNSRSLLESTYQRKAEQLMSDENCFKLMFIQSQGQVQLTIELLDTEEENSDDPVEAERWSDYVERYMNSDTTSPELREHLAQKPVFLPRNLRRIRKCQRGREQQEKEGKEGNSKKTMENVDSLDKLECRFKLNSYKMVYVIKSEDYMYRRTALLRAHQSHERVSKRLHQRFQAWVDKWTKEHVPREMAAETSKWLMGEGLEGLVPCTTTCDTETLHFVSINKYRVKYGTVFKAP
B2: KRT83_HUMAN (protein, UniProt P78385 1-493, looked up)
Keratin, type II cuticular Hb3: MTCGFNSIGCGFRPGNFSCVSACGPRPSRCCITAAPYRGISCYRGLTGGFGSHSVCGGFRAGSCGRSFGYRSGGVCGPSPPCITTVSVNESLLTPLNLEIDPNAQCVKQEEKEQIKSLNSRFAAFIDKVRFLEQQNKLLETKLQFYQNRECCQSNLEPLFAGYIETLRREAECVEADSGRLASELNHVQEVLEGYKKKYEEEVALRATAENEFVALKKDVDCAYLRKSDLEANVEALIQEIDFLRRLYEEEIRILQSHISDTSVVVKLDNSRDLNMDCIVAEIKAQYDDIATRSRAEAESWYRSKCEEMKATVIRHGETLRRTKEEINELNRMIQRLTAEVENAKCQNSKLEAAVAQSEQQGEAALSDARCKLAELEGALQKAKQDMACLIREYQEVMNSKLGLDIEIATYRRLLEGEEQRLCEGVEAVNVCVSSSRGGVVCGDLCVSGSRPVTGSVCSAPCNGNLVVSTGLCKPCGQLNTTCGGGSCGQGRH
B3: PRP16_HUMAN (protein, UniProt Q92620 2-1227, looked up)
Pre-mRNA-splicing factor …: GDTSEDASIHRLEGTDLDCQVGGLICKSKSAASEQHVFKAPAPRPSLLGLDLLASLKRREREEKDDGEDKKKSKVSSYKDWEESKDDQKDAEEEGGDQAGQNIRKDRHYRSARVETPSHPGGVSEEFWERSRQRERERREHGVYASSKEEKDWKKEKSRDRDYDRKRDRDERDRSRHSSRSERDGGSERSSRRNEPESPRHRPKDAATPSRSTWEEEDSGYGSSRRSQWESPSPTPSYRDSERSHRLSTRDRDRSVRGKYSDDTPLPTPSYKYNEWADDRRHLGSTPRLSRGRGRREEGEEGISFDTEEERQQWEDDQRQADRDWYMMDEGYDEFHNPLAYSSEDYVRRREQHLHKQKQKRISAQRRQINEDNERWETNRMLTSGVVHRLEVDEDFEEDNAAKVHLMVHNLVPPFLDGRIVFTKQPEPVIPVKDATSDLAIIARKGSQTVRKHREQKERKKAQHKHWELAGTKLGDIMGVKKEEEPDKAVTEDGKVDYRTEQKFADHMKRKSEASSEFAKKKSILEQRQYLPIFAVQQELLTIIRDNSIVIVVGETGSGKTTQLTQYLHEDGYTDYGMIGCTQPRRVAAMSVAKRVSEEMGGNLGEEVGYAIRFEDCTSENTLIKYMTDGILLRESLREADLDHYSAIIMDEAHERSLNTDVLFGLLREVVARRSDLKLIVTSATMDAEKFAAFFGNVPIFHIPGRTFPVDILFSKTPQEDYVEAAVKQSLQVHLSGAPGDILIFMPGQEDIEVTSDQIVEHLEELENAPALAVLPIYSQLPSDLQAKIFQKAPDGVRKCIVATNIAETSLTVDGIMFVIDSGYCKLKVFNPRIGMDALQIYPISQANANQRSGRAGRTGPGQCFRLYTQSAYKNELLTTTVPEIQRTNLANVVLLLKSLGVQDLLQFHFMDPPPEDNMLNSMYQLWILGALDNTGGLTSTGRLMVEFPLDPALSKMLIVSCDMGCSSEILLIVSMLSVPAIFYRPKGREEESDQIREKFAVPESDHLTYLNVYLQWKNNNYSTIWCNDHFIHAKAMRKVREVRAQLKDIMVQQRMSLASCGTDWDIVRKCICAAYFHQAAKLKGIGEYVNIRTGMPCHLHPTSSLFGMGYTPDYIVYHELVMTTKEYMQCVTAVDGEWLAELGPMFYSVKQAGKSRQENRRRAKEEASAMEEEMALAEEQLRARRQEQEKRSPLGSVRSTKIYTPGRKEQGEPMTPRRTPARFGL
B4: SAFB1_HUMAN (protein, UniProt Q15424 2-915, looked up)
Scaffold attachment factor B1: AETLSGLGDSGAAGAAALSSASSETGTRRLSDLRVIDLRAELRKRNVDSSGNKSVLMERLKKAIEDEGGNPDEIEITSEGNKKTSKRSSKGRKPEEEGVEDNGLEENSGDGQEDVETSLENLQDIDIMDISVLDEAEIDNGSVADCVEDDDADNLQESLSDSRELVEGEMKELPEQLQEHAIEDKETINNLDTSSSDFTILQEIEEPSLEPENEKILDILGETCKSEPVKEESSELEQPFAQDTSSVGPDRKLAEEEDLFDSAHPEEGDLDLASESTAHAQSSKADSLLAVVKREPAEQPGDGERTDCEPVGLEPAVEQSSAASELAEASSEELAEAPTEAPSPEARDSKEDGRKFDFDACNEVPPAPKESSTSEGADQKMSSPEDDSDTKRLSKEEKGRSSCGRNFWVSGLSSTTRATDLKNLFSKYGKVVGAKVVTNARSPGARCYGFVTMSTAEEATKCINHLHKTELHGKMISVEKAKNEPVGKKTSDKRDSDGKKEKSSNSDRSTNLKRDDKCDRKDDAKKGDDGSGEKSKDQDDQKPGPSERSRATKSGSRGTERTVVMDKSKGVPVISVKTSGSKERASKSQDRKSASREKRSVVSFDKVKEPRKSRDSESHSRVRERSEREQRMQAQWEREERERLEIARERLAFQRQRLERERMERERLERERMHVEHERRREQERIHREREELRRQQELRYEQERRPAVRRPYDLDRRDDAYWPEAKRAALDERYHSDFNRQDRFHDFDHRDRGRYPDHSVDRREGSRSMMGEREGQHYPERHGGPERHGRDSRDGWGGYGSDKRMSEGRGLPPPPRRDWGDHGRREDDRSWQGTADGGMMDRDHKRWQGGERSMSGHSGPGHMMNRGGMSGRGSFAPGGASRGHPIPHGGMQGGFGGQSRGSRPSDARFTRRY
B5: PREP_HUMAN (protein, UniProt Q5JRX3 29-1037, looked up)
Presequence protease, …: NSNRACERALQYKLGDKIHGFTVNQVTSVPELFLTAVKLTHDDTGARYLHLAREDTNNLFSVQFRTTPMDSTGVPHILEHTVLCGSQKYPCRDPFFKMLNRSLSTFMNAFTASDYTLYPFSTQNPKDFQNLLSVYLDATFFPCLRELDFWQEGWRLEHENPSDPQTPLVFKGVVFNEMKGAFTDNERIFSQHLQNRLLPDHTYSVVSGGDPLCIPELTWEQLKQFHATHYHPSNARFFTYGNFPLEQHLKQIHEEALSKFQKIEPSTVVPAQTPWDKPREFQITCGPDSFATDPSKQTTISVSFLLPDITDTFEAFTLSLLSSLLTSGPNSPFYKALIESGLGTDFSPDVGYNGYTREAYFSVGLQGIAEKDIETVRSLIDRTIDEVVEKGFEDDRIEALLHKIEIQMKHQSTSFGLMLTSYIASCWNHDGDPVELLKLGNQLAKFRQCLQENPKFLQEKVKQYFKNNQHKLTLSMRPDDKYHEKQAQVEATKLKQKVEALSPGDRQQIYEKGLELRSQQSKPQDASCLPALKVSDIEPTIPVTELDVVLTAGDIPVQYCAQPTNGMVYFRAFSSLNTLPEELRPYVPLFCSVLTKLGCGLLDYREQAQQIELKTGGMSASPHVLPDDSHMDTYEQGVLFSSLCLDRNLPDMMQLWSEIFNNPCFEEEEHFKVLVKMTAQELANGIPDSGHLYASIRAGRTLTPAGDLQETFSGMDQVRLMKRIAEMTDIKPILRKLPRIKKHLLNGDNMRCSVNATPQQMPQTEKAVEDFLRSIGRSKKERRPVRPHTVEKPVPSSSGGDAHVPHGSQVIRKLVMEPTFKPWQMKTHFLMPFPVNYVGECIRTVPYTDPDHASLKILARLMTAKFLHTEIREKGGAYGGGAKLSHNGIFTLYSYRDPNTIETLQSFGKAVDWAKSGKFTQQDIDEAKLSVFSTVDAPVAPSDKGMDHFLYGLSDEMKQAHREQLFAVSHDKLLAVSDRYLGTGKSTHGLAILGPENPKIAKDPSWIIQ
B6: PYC_HUMAN (protein, UniProt P11498 21-1178, looked up)
Pyruvate carboxylase, …: TAPAASPNVRRLEYKPIKKVMVANRGEIAIRVFRACTELGIRTVAIYSEQDTGQMHRQKADEAYLIGRGLAPVQAYLHIPDIIKVAKENNVDAVHPGYGFLSERADFAQACQDAGVRFIGPSPEVVRKMGDKVEARAIAIAAGVPVVPGTDAPITSLHEAHEFSNTYGFPIIFKAAYGGGGRGMRVVHSYEELEENYTRAYSEALAAFGNGALFVEKFIEKPRHIEVQILGDQYGNILHLYERDCSIQRRHQKVVEIAPAAHLDPQLRTRLTSDSVKLAKQVGYENAGTVEFLVDRHGKHYFIEVNSRLQVEHTVTEEITDVDLVHAQIHVAEGRSLPDLGLRQENIRINGCAIQCRVTTEDPARSFQPDTGRIEVFRSGEGMGIRLDNASAFQGAVISPHYDSLLVKVIAHGKDHPTAATKMSRALAEFRVRGVKTNIAFLQNVLNNQQFLAGTVDTQFIDENPELFQLRPAQNRAQKLLHYLGHVMVNGPTTPIPVKASPSPTDPVVPAVPIGPPPAGFRDILLREGPEGFARAVRNHPGLLLMDTTFRDAHQSLLATRVRTHDLKKIAPYVAHNFSKLFSMENWGGATFDVAMRFLYECPWRRLQELRELIPNIPFQMLLRGANAVGYTNYPDNVVFKFCEVAKENGMDVFRVFDSLNYLPNMLLGMEAAGSAGGVVEAAISYTGDVADPSRTKYSLQYYMGLAEELVRAGTHILCIKDMAGLLKPTACTMLVSSLRDRFPDLPLHIHTHDTSGAGVAAMLACAQAGADVVDVAADSMSGMTSQPSMGALVACTRGTPLDTEVPMERVFDYSEYWEGARGLYAAFDCTATMKSGNSDVYENEIPGGQYTNLHFQAHSMGLGSKFKEVKKAYVEANQMLGDLIKVTPSSKIVGDLAQFMVQNGLSRAEAEAQAEELSFPRSVVEFLQGYIGVPHGGFPEPFRSKVLKDLPRVEGRPGASLPPLDLQALEKELVDRHGEEVTPEDVLSAAMYPDVFAHFKDFTATFGPLDSLNTRLFLQGPKIAEEFEVELERGKTLHIKALAVSDLNRAGQRQVFFELNGQLRSILVKDTQAMKEMHFHPKALKDVKGQIGAPMPGKVIDIKVVAGAKVAKGQPLCVLSAMKMETVVTSPMEGTVRKVHVTKDMTLEGDDLILEIE

The molecules below were run on KDM4A-I71AzF (assay: CASI: photo-crosslinking with HEK293T cell extracts, StrepTactin enrichment and LC-MS/MS proteomics). Conditions: sheet "Final results but with 0.01".
Format: binding, human
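Also: lysates from HEK293T cells pretreated with a KDM4 inhibitor to raise proteome methylation, affinity-purified after ±UV, gel-resolved, trypsin-digested, with exclusive unique peptides per protein averaged per condition.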

Molecule	Fold change (+UV/-UV)
B1	1.333
B2	10
B3	0
B4	0.5
B5	0.2
B6	0.3333
